This note sets out measurements from US20040067882A1 (published 2004).

The series concerns the molecule itself. The experiment in a line: self-association, non-reducing western blot.

B1: CG57094-02 purified protein (angiopoietin-related protein, ARP, mature region; CHO-K1 stable cell expression, plasmid 1614) (ligand)
chain: GPVQSKSPRFASWDEMNVLAHGLLQLGQGLREHAERTRSQLSALERRLSACGSACQGTEGSTDLPLAPESRVDPEVLHSLQTQLKAQNSRIQQLFHKVAQQQRHLEKQHLRIQHLQSQFGLLDHKHLDHEVAKPARRKRLPEMAQPVDPAHNVSRLHRLPRDCQELFQVGERQSGLFEIQPQGSPPFLVNCKMTSDGGWTVIQRRHDGSVDFNRPWEAYKAGFGDPHGEFWLGLEKVHSITGDRNSRLAVQLRDWDGNAELLQFSVHLGGEDTAYSLQLTAPVAGQLGATTVPPSGLSVPFSTWDQDHDLRRDKNCAKSLSGGWWFGTCSHSNLNGQYFRSIPQQRQKLKKGIFWKTWRGRYYPLQATTMLIQPMAAEAAS
notes: also called NOV25s; CG57094 variant 02; not shown: C-terminal V5 and His tags from the pEE14.4 Sec vector
In the case of B1, the binding result is recorded as “binds”.
